Source: patent US20230250157A1 (published 2023)
Changes are numbered by the printed parent chain.

B1: M8a-29 (antibody, V domains shown)
VH: EVQLQQSVAELVRPGASVKLSCTASGFNIKNTYMHWVKQRPEQGLEWIGRIDPSIDHTRYAPKFQGKAVITAFTSSNTAYLQLSSLTSEDTAIYYCAREGGGNYPYYYAIDYWGQGTSVTVSS
VL: DIVMTQAAFSNPVTLGTSASISCRSTKSLLHSNGITYLYWYLQKPGQSPQLLIYQMSNLASGVPDRFSSSGSGTDFTLRISRVEAEDVGVYYCAQNLELPYTFGGGTKLEIK
B2: M8a-25 (antibody, V domains shown)
VH: B1 VH
VL: DIQMTQSSSSFSVSLGDRVTITCKASEDIYIRLAWYQQRPGNAPRLLISNAISLETGVPSRFSGSGFGKDHTLSITSLQTEDVATYYCQQYWSTPWTFGGGTKLEIK
B3: M8a-11 (antibody, V domains shown)
VH: EVQLQQSGPELVKPGASVKIPCKASGYTFTDYNMDWVKQSHEKSLEWIGEIDPNNGDTIYNQKFKGKASLTVDKSSSTAYMELRSLTSEDTAVYYCAKRGYYGSSLWWYFDVWGTGTTVTVSS
VL: B2 VL with F67S, H71Y
B4: M8a-15 (antibody, V domains shown)
VH: QVQLQQSGPELARPGASVKLSCRASGYTVTSFGLSWMKQRTGQGLEWIGEIYPTSKNTYYNDKFRTKATLTADKSSSTAYMELRSLTSEDSAVYFCVLYDYFDYWGQGTTLTVSS
VL: QIVLTQSPAIMSASPGEKVTISCSASSSVSYMYWYQQKTGSSPKPWIYRTSNLASGVPVRFSGSGSGTSYSLTISSMEAEDAATYYCQQYQSYPRTFGGGTKLEIK
B5: M8a-7 (antibody, V domains shown)
VH: QAYLQQSGAEMVRPGASVKMSCKASGYTFNNYNMHWVKQTPSQGLEWIGGFYPGNDDTAYSQKFKGKATLTVDKSSSTAFMHLSSLTSEDSAVYFCARSLGRYYAMDYWGQGTSVTVSS
VL: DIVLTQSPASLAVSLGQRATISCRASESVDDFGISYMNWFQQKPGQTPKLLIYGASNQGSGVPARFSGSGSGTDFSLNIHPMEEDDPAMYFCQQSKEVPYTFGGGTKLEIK
B6: M8a-30 (antibody, V domains shown)
VH: QVHLQQSGPELVKPGASVKISCKASGYGFSSSWMNWVKQRPGKGLEWIGRIYPGDGDTNYNDKFQGKATLTADRSSSTAYMHLTSLTSADSAVYFCARSLLYSFDYWGQGTTLTVSS
VL: DVVVTQTPLSLPVSFGDQVSISCRSSQSLAGSYGHTYLSWYLHKSGQSPQLLIYGISNRFSGVPDRFSGSGSGTDFTLKISTIKPEDLGMYYCLQGTHQPLTFGAGTKLELK

target: SARS-CoV-2 Delta RBD (SARS-CoV-2 Delta); test: ELISA

Row | Binder | EC50 [µg/mL]
1 | B1 | > 10
2 | B2 | > 10
3 | B3 | > 10
4 | B4 | > 10
5 | B5 | > 10

target: SARS-CoV-2 Omicron BA.2 RBD (SARS-CoV-2 Omicron BA.2); test: ELISA

Row | Binder | EC50 [µg/mL]
6 | B1 | > 10
7 | B2 | > 10
8 | B6 | > 10
9 | B3 | > 10
10 | B4 | > 10
11 | B5 | > 10

target: SARS-CoV-2 Beta RBD (SARS-CoV-2 Beta); test: ELISA

Row | Binder | EC50 [µg/mL]
12 | B1 | > 10
13 | B2 | > 10
14 | B6 | > 10
15 | B3 | > 10
16 | B4 | > 10
17 | B5 | > 10

target: SARS-CoV-2 Omicron BA.1 RBD (SARS-CoV-2 Omicron BA.1); test: ELISA

Row | Binder | EC50 [µg/mL]
18 | B1 | > 10
19 | B2 | > 10
20 | B6 | > 10
21 | B3 | > 10
22 | B4 | > 10
23 | B5 | > 10
